Data published in patent publication US20240392024A1 (SHANGHAI CELGEN BIO PHARMACEUTICAL, published 2024).
Changes are numbered by the printed parent chain. “And” between values parts separate entries of the source, which are not always exact repeats. Equal entries are not always repeated.

T1: TNFR2-His (Sino Biological, 10417-H08H, NP_001057.1 Met1-Asp257, with multi-histidine tag expressed on … (human, UniProt P20333 23-257))
T1 construct: range 1-257; Bought protein; also called recombinant human TNFR2 protein; TNFR2-His antigen; not shown: C-terminal multi-histidine tag
T1 sequence (looked up): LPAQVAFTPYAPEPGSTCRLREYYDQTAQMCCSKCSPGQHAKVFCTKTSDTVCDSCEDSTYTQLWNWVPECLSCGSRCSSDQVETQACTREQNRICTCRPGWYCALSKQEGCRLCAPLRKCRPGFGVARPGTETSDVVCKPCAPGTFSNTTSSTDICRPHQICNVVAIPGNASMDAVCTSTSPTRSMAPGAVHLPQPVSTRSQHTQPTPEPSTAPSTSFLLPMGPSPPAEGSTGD

T2: human TNFR2 on the cell membrane (human, UniProt P20333 23-461)
T2 construct: whole, on cells; One molecule for all cell formats; also called TNFR2-CHO cells; CHO-TNFR2
T2 sequence (looked up): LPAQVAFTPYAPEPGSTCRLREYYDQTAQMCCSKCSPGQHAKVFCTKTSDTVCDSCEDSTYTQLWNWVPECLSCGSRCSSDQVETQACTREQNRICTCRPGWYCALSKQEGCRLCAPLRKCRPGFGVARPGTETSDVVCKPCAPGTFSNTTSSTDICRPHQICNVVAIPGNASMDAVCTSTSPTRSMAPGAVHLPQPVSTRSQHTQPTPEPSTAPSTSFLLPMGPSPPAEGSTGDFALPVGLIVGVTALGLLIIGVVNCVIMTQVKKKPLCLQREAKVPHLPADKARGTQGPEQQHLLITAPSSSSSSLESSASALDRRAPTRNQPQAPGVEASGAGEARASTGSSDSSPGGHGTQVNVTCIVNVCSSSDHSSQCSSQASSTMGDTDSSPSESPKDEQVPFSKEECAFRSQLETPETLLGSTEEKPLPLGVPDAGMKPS

B1: 33C12huVH2 + huVL2(P07301) (antibody, V domains shown)
VH: EVQLVESGGGLVKPGGSLRLSCAASGFTFSDYTMSWVRQAPGKGLEWVATISTGGSYTYYPDSVKGRFTISRDNAKNTLYLQMSSLRAEDTAVYYCARDGGYDGDYFDYWGQGTTVTVSS
VL: ENVLTQSPATLSLSPGERATLSCRASSSVSSSYLHWYQQKPGQAPRLWIYRTSNLASGVPARFSGSGSGTDFTLTISRLEPEDFAVYYCQQYSGYPLTFGGGTKLEIK
notes: Humanized 33C12
B2: 33C12huVH3 + huVL3(P07304) (antibody, V domains shown)
VH: B1 VH with P61A, T78S, S84N
VL: B1 VL with N2I, W48L, S57T, V59I, A61D
notes: Humanized 33C12
B3: 33C12huVH1 + huVL1(P07298) (antibody, V domains shown)
VH: B1 VH with E1D, A97T
VL: B1 VL with L21M, F72Y, L79V
notes: Humanized 33C12
B4: 33C12huVH2 + huVL3(P07303) (antibody, V domains shown)
VH: B1 VH
VL: B1 VL with N2I, W48L, S57T, V59I, A61D
notes: Humanized 33C12
B5: 33C12huVH3 + huVL2(P07302) (antibody, V domains shown)
VH: B1 VH with P61A, T78S, S84N
VL: B1 VL
notes: Humanized 33C12
B6: 33C12huVH2 + huVL1(P07299) (antibody, V domains shown)
VH: B1 VH
VL: B1 VL with L21M, F72Y, L79V
notes: Humanized 33C12
B7: 33C12huVH3 + huVL1(P07300) (antibody, V domains shown)
VH: B1 VH with P61A, T78S, S84N
VL: B1 VL with L21M, F72Y, L79V
notes: Humanized 33C12
B8: 12E12-huVH6 + huVL2(P08937) (antibody, V domains shown)
VH: QVQLVQSGAEVKKPGASVKVSCKASGYTITDFYIHWVRQAPGQGLEWIGRVDPEDGNTEYAPNFQDRATMTTDTSTSTAYLELSSLRSEDTAVYYCSTWDGFSYFDYWGQGTTVTVSS
VL: QAVVTQEPSLTVSPGGTVTLTCRSSTGPVTTNNYANWVQQKPGQAFRGLIGGTNDRAPGVPARFSGSLLGGKAALTLSGAQPEDEAEYYCALWYRNHWVFGGGTKLTVL
notes: Humanized 12E12
B9: 12E12-huVH7 + huVL2(P08938) (antibody, V domains shown)
VH: B8 VH with Q43K, I48M, P62Q, N63K, D66G, A68V, S77D, L81M
VL: B8 VL
notes: Humanized 12E12
B10: 12E12-huVH8 + huVL4(P08942) (antibody, V domains shown)
VH: EVQLVQSGAEVKKPGATVKISCKVSGYTITDFYIHWVQQAPGKGLEWMGRVDPEDGNTEYAPNFQDRVTITADTSTDTAYMELSSLRSEDTAVYYCSTWDGFSYFDYWGQGTTVTVSS
VL: EAVVTQSPATLSLSPGERATLSCRSSTGPVTTNNYANWVQQKPGQAFRGLIGGTNDRAPGIPARFSGSGSGTDTTLTISSLQPEDFAVYYCALWYRNHWVFGGGTKLEIK
notes: Humanized 12E12
B11: 12E12-huVH8 + huVL2(P08939) (antibody, V domains shown)
VH: B10 VH
VL: B8 VL
notes: Humanized 12E12
B12: 12E12-huVH6 + huVL4(P08940) (antibody, V domains shown)
VH: B8 VH
VL: B10 VL
notes: Humanized 12E12
B13: 12E12-huVH7 + huVL4(P08941) (antibody, V domains shown)
VH: B8 VH with Q43K, I48M, P62Q, N63K, D66G, A68V, S77D, L81M
VL: B10 VL
notes: Humanized 12E12

biological target: T1, TNFR2-His (Sino Biological, 10417-H08H, …); assay: ELISA, coated TNFR2-His
In short: (§1)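 EC50 values come from antibody dilution series tested by ELISA. Plates were coated with recombinant human TNFR2 bearing a C-terminal His tag and blocked before the serially diluted antibodies were added. Binding was detected with an enzyme-labelled anti-IgG secondary antibody, TMB development and a microplate reader.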

EC50 | Binder
0.886 nM | B1
0.354 nM | B2
0.433 nM | B3
0.771 nM | B4
2.03 nM | B5
1.46 nM | B6
1.08 nM | B7

biological target: T2, human TNFR2 on the cell membrane; assay: flow cytometry, CHO-TNFR2 cells
In short: (§2)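 CHO cells were transfected with a pcDNA3.4 vector carrying human TNFR2, taken through drug selection and sorted as single clones to give a line that stably overexpresses the receptor. These cells were placed in 96-deep-well plates, incubated with serially diluted antibodies, washed and then stained with a fluorescent anti-IgG secondary antibody. Flow cytometry was run on a Beckman CytoFLEX, and EC50 values were derived from the dilution series.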

EC50 | Binder
0.873 nM | B1
1.08 nM | B2
0.448 nM | B3
1.12 nM | B4
3.01 nM | B5
2.27 nM | B6
1.44 nM | B7

biological target: T2, human TNFR2 on the cell membrane; assay: flow cytometry on CHO-TNFR2 cells
In short: as §2

EC50 | Binder
0.13 µg/mL | B1
0.161 µg/mL | B2
0.0669 µg/mL | B3
0.167 µg/mL | B4
0.449 µg/mL | B5
0.34 µg/mL | B6
0.214 µg/mL | B7

biological target: T2, human TNFR2 on the cell membrane; assay: flow cytometry on CHO-TNFR2 cells; remark: another data set of the same source
In short: as §2

EC50 | Binder
0.0096 µg/mL and 0.064 nM | B8
0.0587 µg/mL and 0.394 nM | B9
0.0129 µg/mL and 0.087 nM | B10
0.0158 µg/mL and 0.106 nM | B11
0.011 µg/mL and 0.073 nM | B12
0.0217 µg/mL and 0.145 nM | B13

biological target: T1, TNFR2-His (Sino Biological, 10417-H08H, …); assay: ELISA, plate coated with TNFR2-His
In short: as §1

EC50 | Binder
0.132 µg/mL | B1
0.0528 µg/mL | B2
0.0646 µg/mL | B3
0.115 µg/mL | B4
0.303 µg/mL | B5
0.218 µg/mL | B6
0.161 µg/mL | B7

biological target: T1, TNFR2-His (Sino Biological, 10417-H08H, …); assay: BLI, antibody captured on AHC probe, TNFR2 in solution
In short: (§3)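 Bio-layer interferometry on an Octet in Basic Kinetics mode. Antibodies at 50 nM in Q buffer (10 mM PBS pH 7.4, 0.02% Tween 20, 0.2% BSA) were held on antibody-capture sensors. The sensors were then placed in recombinant human TNFR2 diluted 2-fold in Q buffer from a top concentration of 100 nM. Kon, koff and Kd come from these kinetic association measurements.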

Kd | koff | kon | Binder
5.28 nM | 0.00449 s⁻¹ | 849000 M⁻¹ s⁻¹ | B8
1.7 nM | 0.00183 s⁻¹ | 1.08e+06 M⁻¹ s⁻¹ | B9
3.25 nM | 0.00437 s⁻¹ | 1.34e+06 M⁻¹ s⁻¹ | B10
3.92 nM | 0.00442 s⁻¹ | 1.13e+06 M⁻¹ s⁻¹ | B11
4.03 nM | 0.0034 s⁻¹ | 844000 M⁻¹ s⁻¹ | B12
2.8 nM | 0.0035 s⁻¹ | 1.25e+06 M⁻¹ s⁻¹ | B13

biological target: T1, TNFR2-His (Sino Biological, 10417-H08H, …); assay: BLI, antibody captured on AHC probe, TNFR2-His in solution
In short: as §3

Kd | koff | kon | Binder
17.8 nM | 0.00279 s⁻¹ | 157000 M⁻¹ s⁻¹ | B1
48.7 nM | 0.00368 s⁻¹ | 75600 M⁻¹ s⁻¹ | B2
17.7 nM | 0.00171 s⁻¹ | 96400 M⁻¹ s⁻¹ | B3
16.3 nM | 0.00167 s⁻¹ | 102000 M⁻¹ s⁻¹ | B4
11.9 nM | 0.00188 s⁻¹ | 158000 M⁻¹ s⁻¹ | B5
15.1 nM | 0.0013 s⁻¹ | 86100 M⁻¹ s⁻¹ | B6
12.7 nM | 0.00223 s⁻¹ | 175000 M⁻¹ s⁻¹ | B7

biological target: T1, TNFR2-His (Sino Biological, 10417-H08H, …); assay: ELISA, plate coated with TNFR2-His (second test)
In short: as §1

EC50 | Binder
0.0322 µg/mL and 0.216 nM | B8
0.0262 µg/mL and 0.176 nM | B9
0.0353 µg/mL and 0.237 nM | B10
0.0284 µg/mL and 0.19 nM | B11
0.0279 µg/mL and 0.187 nM | B12
0.0273 µg/mL and 0.183 nM | B13
